C50 data for one substance are collected here from patent publication US20040176573A1.

The target in assay [1] is HLA-A2 (human).
Assay [2] addresses HLA-A2 (human). The source holds these as a separate data set.

Read-outs that look alike come from different tables or passages of the source.

For the substance “HIV-1 pol476-484 (peptide; other documents disagree on this pair)”, the C50 in assay [1] is 0.7 µM; in assay [2], 0.2 µM.
